Target: the molecule itself
Assay: cryo-EM structure; single-particle cryoEM of the purified Salmonella MS-FliG ring complex in 25 mM Tris-HCl pH 8.0, 50 mM NaCl, 1 mM EDTA, 0.1% DDM; 8.6 Å (C1) and 6.1 Å (C11) reconstructions

B1: Salmonella FliF (MS-ring of the purified MS-FliG ring complex) (natural protein, UniProt P15928 1-560, looked up)
chain: MSATASTATQPKPLEWLNRLRANPRIPLIVAGSAAVAIVVAMVLWAKTPDYRTLFSNLSDQDGGAIVAQLTQMNIPYRFANGSGAIEVPADKVHELRLRLAQQGLPKGGAVGFELLDQEKFGISQFSEQVNYQRALEGELARTIETLGPVKSARVHLAMPKPSLFVREQKSPSASVTVTLEPGRALDEGQISAVVHLVSSAVAGLPPGNVTLVDQSGHLLTQSNTSGRDLNDAQLKFANDVESRIQRRIEAILSPIVGNGNVHAQVTAQLDFANKEQTEEHYSPNGDASKATLRSRQLNISEQVGAGYPGGVPGALSNQPAPPNEAPIATPPTNQQNAQNTPQTSTSTNSNSAGPRSTQRNETSNYEVDRTIRHTKMNVGDIERLSVAVVVNYKTLADGKPLPLTADQMKQIEDLTREAMGFSDKRGDTLNVVNSPFSAVDNTGGELPFWQQQSFIDQLLAAGRWLLVLVVAWILWRKAVRPQLTRRVEEAKAAQEQAQVRQETEEAVEVRLSKDEQLQQRRANQRLGAEVMSQRIREMSDNDPRVVALVIRQWMSNDHE
notes: FliF, flagellar M-ring protein, Salmonella; 60-kDa protein with two transmembrane helices and a large periplasmic region; also called St-FliF; copies: 34
In the case of B1, the “stoichiometry N” value is reported as 34.

From PMC8092281, “Two Distinct Conformations in 34 FliF Subunits Generate Three Different Symmetries within the Flagellar MS-Ring” (mBio, 2021)
